The record followed here is patent publication US6150168.

The target in test [1] is ASOR receptor (asialoglycoprotein receptor) on primary mouse hepatocytes (mouse) (UniProt P34927). The settings on record: scale: % conversion of phenylalanine to tyrosine.
The target is the same in test [2].
The target is the same in test [3]. The source holds these as a separate data set.
For test [4], the target named is adenovirus receptor on primary mouse hepatocytes (mouse).
Test [5] concerns the target ASOR receptor on HepG2 cells.
Test [6] concerns the target ASOR receptor (asialoglycoprotein receptor) on primary mouse hepatocytes (mouse) (UniProt P34927). The source holds these as a separate data set.

In the case of “ASOR/poly-L-lysine conjugate (ASOR/PLL conjugate)”, the phenylalanine hydroxylase activity (percent conversion of phenylalanine to tyrosine) in PAH deficient mouse hepatocytes after delivery of CMV/hPAH DNA in complex form with adenovirus in test [1] came to 26. Further, in test [2], the percentage of cells expressing β-gal, ASOR-PLL/DNA complexes with free adenovirus, in the presence of a 1000-fold excess of free ASOR is < 2 % of cells; the percentage of cells staining blue, complex containing adenovirus conjugated with PLL at high EDC concentrations, in the presence of a 1000-fold excess of free ASOR was < 30 % of cells; the percentage of cells staining positive for beta-gal, complex containing adenovirus conjugated with PLL at low EDC concentrations, in the presence of a 1000-fold excess of free ASOR is 80 % of cells. In test [3], this substance returned a canine factor IX (cFIX) level in supernatants of primary mouse hepatocytes after delivery of pCMV/cFIX with the high EDC ADV-PLL/DNA complex (µg/10^6 cells/24 hours) of 0.79.

Consider “adenovirus (d1312) conjugated with PLL at low EDC concentrations”, for which the percentage of cells staining positive for beta-gal after delivery with the low EDC ADV-PLL/DNA complex, in the presence of a 1000-fold excess of free ASOR in test [4] is 80 % of cells.

Take asialoorosomucoid (ASOR) (ligand): the results for the internalized ^3 H counts after a 2 hour incubation (dose-response of ^3 H-ASOR uptake) (molecules/cell) in test [5] and in test [6] were 150000 and 320000, respectively.
